Experimental data reported in article PMC7375243, “Structural Basis of Human Helicase DDX21 in RNA Binding, Unwinding, and Antiviral Signal Activation” (Advanced Science, 2020).

Key:
[1] = target: the molecule itself; test: SAXS; beamline BL19U2, 1-3 mg/mL protein; 20 mM Tris-HCl pH 7.5, 1 mM TCEP, 100 mM NaCl for DDX21 (188-563), 500 mM NaCl for DDX21 (1-783); ab initio envelopes (GASBOR)
[2] = target: the molecule itself; test: SEC; gel filtration of DDX21 del-C (1-710) and del-NC (188-710), data not shown; final SEC buffer of del-C with 200 mM NaCl
DDX21 full-length = target: T1, DDX21 full-length (human, UniProt Q9NR30 1-783); test: UV crosslinking/MST/SEC (method for this pair not specified); MST: 50 mM Tris pH 7.5, 50 mM KCl, 2 mM MgCl2, 1 mM TCEP, 0.01% NP-40, 0.05 mg/mL BSA, 2 mM AMPPNP, 50 nM FAM-RNA; temperature not given; crosslinking buffer not in material; details: protein: recombinant; tags: N-terminal His-SUMO, removed by ULP1; chain copies: 3; single strand
T1 sequence: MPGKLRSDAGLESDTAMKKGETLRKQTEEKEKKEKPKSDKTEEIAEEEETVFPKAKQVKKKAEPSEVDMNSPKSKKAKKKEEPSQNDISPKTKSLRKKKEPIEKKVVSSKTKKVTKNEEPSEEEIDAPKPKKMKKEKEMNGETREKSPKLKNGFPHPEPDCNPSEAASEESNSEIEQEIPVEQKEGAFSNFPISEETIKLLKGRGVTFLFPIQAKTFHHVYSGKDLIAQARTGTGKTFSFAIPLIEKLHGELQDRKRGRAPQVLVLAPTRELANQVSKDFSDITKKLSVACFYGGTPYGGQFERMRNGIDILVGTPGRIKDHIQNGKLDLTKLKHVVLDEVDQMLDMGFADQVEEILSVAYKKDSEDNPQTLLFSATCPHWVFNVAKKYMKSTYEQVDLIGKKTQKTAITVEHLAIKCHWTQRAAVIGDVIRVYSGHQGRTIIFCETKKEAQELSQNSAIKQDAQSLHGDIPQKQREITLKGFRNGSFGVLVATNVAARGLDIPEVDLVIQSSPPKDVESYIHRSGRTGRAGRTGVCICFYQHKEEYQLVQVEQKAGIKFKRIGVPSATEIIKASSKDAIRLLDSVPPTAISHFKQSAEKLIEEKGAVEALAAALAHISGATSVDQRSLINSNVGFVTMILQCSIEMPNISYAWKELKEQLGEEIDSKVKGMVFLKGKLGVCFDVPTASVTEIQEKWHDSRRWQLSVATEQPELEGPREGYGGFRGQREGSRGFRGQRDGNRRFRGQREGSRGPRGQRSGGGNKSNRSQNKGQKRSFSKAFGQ

[3] = target: T2, DDX21 helicase core (D1D2, DDX21-delNC) (human, UniProt Q9NR30 188-563); test: crystal structure; AMPPNP, Mg2+; 2.24 A, 7 nt visible; MST: 50 mM Tris pH 7.5, 50 mM KCl, 2 mM MgCl2, 1 mM TCEP, 0.01% NP-40, 0.05 mg/mL BSA, 2 mM AMPPNP, 50 nM FAM-RNA; temperature not given; crosslinking buffer not in material; details: protein: recombinant; tags: N-terminal His-SUMO, removed by ULP1; single strand
T2 sequence: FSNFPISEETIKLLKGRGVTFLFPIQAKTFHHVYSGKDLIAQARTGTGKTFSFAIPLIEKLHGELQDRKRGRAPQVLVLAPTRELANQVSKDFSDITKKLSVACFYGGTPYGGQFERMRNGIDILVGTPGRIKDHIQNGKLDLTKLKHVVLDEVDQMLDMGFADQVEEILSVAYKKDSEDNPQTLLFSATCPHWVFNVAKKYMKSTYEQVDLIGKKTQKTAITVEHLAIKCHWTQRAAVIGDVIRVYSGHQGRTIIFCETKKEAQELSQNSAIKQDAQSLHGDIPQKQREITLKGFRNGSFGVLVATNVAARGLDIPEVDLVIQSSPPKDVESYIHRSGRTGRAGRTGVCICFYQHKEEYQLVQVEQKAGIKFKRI

B1: full-length DDX21 (1-783) (enzyme, human, UniProt Q9NR30-1 1-783, looked up)
chain: T1 sequence
notes: human DDX21, residues 1-783, codon-optimised synthetic gene; The text says it might be a trimer (SAXS, gel filtration); also called WT DDX21; RNA helicase DDX21; source: E. coli BL21-CodonPlus (DE3)-RIL, purified (Ni-NTA, ULP1 cleavage, Ni-NTA, Superdex 200); not shown: His-sumo, N-terminal, cleaved
stoichiometry N [1]: 3

B2: DDX21 del-C (1-710) (domain or fragment, human, UniProt Q9NR30-1 1-710, looked up)
chain: MPGKLRSDAGLESDTAMKKGETLRKQTEEKEKKEKPKSDKTEEIAEEEETVFPKAKQVKKKAEPSEVDMNSPKSKKAKKKEEPSQNDISPKTKSLRKKKEPIEKKVVSSKTKKVTKNEEPSEEEIDAPKPKKMKKEKEMNGETREKSPKLKNGFPHPEPDCNPSEAASEESNSEIEQEIPVEQKEGAFSNFPISEETIKLLKGRGVTFLFPIQAKTFHHVYSGKDLIAQARTGTGKTFSFAIPLIEKLHGELQDRKRGRAPQVLVLAPTRELANQVSKDFSDITKKLSVACFYGGTPYGGQFERMRNGIDILVGTPGRIKDHIQNGKLDLTKLKHVVLDEVDQMLDMGFADQVEEILSVAYKKDSEDNPQTLLFSATCPHWVFNVAKKYMKSTYEQVDLIGKKTQKTAITVEHLAIKCHWTQRAAVIGDVIRVYSGHQGRTIIFCETKKEAQELSQNSAIKQDAQSLHGDIPQKQREITLKGFRNGSFGVLVATNVAARGLDIPEVDLVIQSSPPKDVESYIHRSGRTGRAGRTGVCICFYQHKEEYQLVQVEQKAGIKFKRIGVPSATEIIKASSKDAIRLLDSVPPTAISHFKQSAEKLIEEKGAVEALAAALAHISGATSVDQRSLINSNVGFVTMILQCSIEMPNISYAWKELKEQLGEEIDSKVKGMVFLKGKLGVCFDVPTASVTEIQEKWHDSRRWQLSVATE
notes: human DDX21, residues 1-710; source: E. coli BL21-CodonPlus (DE3)-RIL, purified (Ni-NTA, ULP1 cleavage, Ni-NTA, Superdex 200); not shown: His-sumo, N-terminal, cleaved
stoichiometry N [2]: 5

B3: DDX21 del-NC (188-710) (domain or fragment, human, UniProt Q9NR30-1 188-710, looked up)
chain: FSNFPISEETIKLLKGRGVTFLFPIQAKTFHHVYSGKDLIAQARTGTGKTFSFAIPLIEKLHGELQDRKRGRAPQVLVLAPTRELANQVSKDFSDITKKLSVACFYGGTPYGGQFERMRNGIDILVGTPGRIKDHIQNGKLDLTKLKHVVLDEVDQMLDMGFADQVEEILSVAYKKDSEDNPQTLLFSATCPHWVFNVAKKYMKSTYEQVDLIGKKTQKTAITVEHLAIKCHWTQRAAVIGDVIRVYSGHQGRTIIFCETKKEAQELSQNSAIKQDAQSLHGDIPQKQREITLKGFRNGSFGVLVATNVAARGLDIPEVDLVIQSSPPKDVESYIHRSGRTGRAGRTGVCICFYQHKEEYQLVQVEQKAGIKFKRIGVPSATEIIKASSKDAIRLLDSVPPTAISHFKQSAEKLIEEKGAVEALAAALAHISGATSVDQRSLINSNVGFVTMILQCSIEMPNISYAWKELKEQLGEEIDSKVKGMVFLKGKLGVCFDVPTASVTEIQEKWHDSRRWQLSVATE
notes: human DDX21, residues 188-710
stoichiometry N [2]: 2

B4: U15 (ssRNA)
RNA: UUUUUUUUUUUUUUU
binding result (DDX21 full-length): binds | binding result [3]: binds
